The target in data set [1] is T1, Large fragment (residues 12-390) of trypsin treated DIG-984 (DIG-177 C88>A; C451>A) (Bacillus thuringiensis) (UniProt Q45757).
T1 sequence: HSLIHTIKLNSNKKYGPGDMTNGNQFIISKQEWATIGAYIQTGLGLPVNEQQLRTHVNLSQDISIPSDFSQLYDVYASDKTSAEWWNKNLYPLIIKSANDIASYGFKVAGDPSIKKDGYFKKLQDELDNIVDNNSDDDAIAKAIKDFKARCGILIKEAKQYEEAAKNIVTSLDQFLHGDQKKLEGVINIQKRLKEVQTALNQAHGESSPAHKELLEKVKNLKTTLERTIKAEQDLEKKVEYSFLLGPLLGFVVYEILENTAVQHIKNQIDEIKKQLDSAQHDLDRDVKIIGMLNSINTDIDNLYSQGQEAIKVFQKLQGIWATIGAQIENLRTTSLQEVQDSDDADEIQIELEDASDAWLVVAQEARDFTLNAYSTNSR
The experiment in a line: cell-based or functional assay.

Data set [2] deals with T2, Large fragment (residues 12-390) of trypsin treated DIG-616 (DIG-177 C162>A) (Bacillus thuringiensis, UniProt Q45757 12-390).
T2 sequence: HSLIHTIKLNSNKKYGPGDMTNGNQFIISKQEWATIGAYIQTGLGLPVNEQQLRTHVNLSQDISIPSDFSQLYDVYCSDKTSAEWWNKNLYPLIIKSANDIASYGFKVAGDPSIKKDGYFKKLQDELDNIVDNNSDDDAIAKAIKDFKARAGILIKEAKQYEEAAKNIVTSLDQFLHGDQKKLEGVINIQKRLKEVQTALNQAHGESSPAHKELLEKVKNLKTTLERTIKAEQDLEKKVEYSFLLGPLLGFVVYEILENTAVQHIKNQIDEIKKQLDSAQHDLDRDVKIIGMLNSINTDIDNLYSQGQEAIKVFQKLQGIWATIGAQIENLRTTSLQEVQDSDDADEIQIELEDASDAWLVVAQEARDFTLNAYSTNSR
Description: cell-based or functional assay.

Data set [3] deals with the molecule itself. The experiment in a line: SDS-PAGE of undigested full-length DIG-177 (self-association).
Description: SDS-PAGE was run following the protocol NuPAGE Bis-Tris gels from Invitrogen Life technologies (Protocol Pub. No. MAN0007894 Rev. A.0, Ref. 2). Briefly, samples were mixed with denaturing sample buffer (Invitrogen) plus 5 mM DTT (for reducing PAGE) or minus DTT (for non reducing PAGE) and heated at 95° C. for 5 minutes. The samples were loaded onto Invitrogen Bis/Tris gel. The gel was run with MOPS or MES running buffer under 200 V for ˜43 minutes. The gel was stained with Coomassie blue staining solution (Bio-Rad) for 30 minutes and de-stained with de-staining solution (7% Acetic acid and 5% Methanol in water) until the background cleared.

Data on five molecules can be found in patent publication US20170051304A1 (DOW AGROSCIENCES, published 2017).

Several values for one entry are separate records, joined by “and”; a condition that tells them apart may be missing. Equal values may be shown once. Where no end group is shown, it is not given here.

For NSNLEYKAPENNFMIYWYNNSDWYNNSDWYNN [Carboxy terminal peptide 444-475 of trypsin treated DIG-984 (C451>A)], in data set [1], the % Mortality was 0% and 21.1% and 15%.

B1: CTP 1 (Carboxy terminal peptide 1), amino acids 444-475 of SEQ ID NO:2 (peptide)
peptide: NSNLEYKCPENNFMIYWYNNSDWYNNSDWYNN
modifications: also: Cys451 (position 8) disulfide-bonded to Cys88 of LF under non-reducing conditions
With B1, in data set [2], the “% Mortality” value came to 95%.

B2: DIG-177 (full length wild type Cry6Aa) (other)
chain: MIIDSKTTLPRHSLIHTIKLNSNKKYGPGDMTNGNQFIISKQEWATIGAYIQTGLGLPVNEQQLRTHVNLSQDISIPSDFSQLYDVYCSDKTSAEWWNKNLYPLIIKSANDIASYGFKVAGDPSIKKDGYFKKLQDELDNIVDNNSDDDAIAKAIKDFKARCGILIKEAKQYEEAAKNIVTSLDQFLHGDQKKLEGVINIQKRLKEVQTALNQAHGESSPAHKELLEKVKNLKTTLERTIKAEQDLEKKVEYSFLLGPLLGFVVYEILENTAVQHIKNQIDEIKKQLDSAQHDLDRDVKIIGMLNSINTDIDNLYSQGQEAIKVFQKLQGIWATIGAQIENLRTTSLQEVQDSDDADEIQIELEDASDAWLVVAQEARDFTLNAYSTNSRQNLPINVISDSCNCSTTNMTSNQYSNPTTNMTSNQYMISHEYTSLPNNFMLSRNSNLEYKCPENNFMIYWYNNSDWYNNSDWYNN
notes: Insecticidal crystal protein; Recombinant from Pseudomonas fluorescens (standard), or expressed in maize, there in part with transit peptides
With B2, the binding result in data set [3] is “binds”.
APENNFMIYWYNNSDWYNNSDWYNN [Carboxy terminal peptide 451-475 of trypsin treated DIG-984 (C451>A)]: the % Mortality in data set [1] was 0% and 21.1% and 15%.

B3: CTP 2 (Carboxy terminal peptide 2), amino acids 451-475 of SEQ ID NO:2 (peptide)
peptide: CPENNFMIYWYNNSDWYNNSDWYNN
modifications: also: Cys451 (position 1) disulfide-bonded to Cys88 of LF under non-reducing conditions
Consider B3, for which the “% Mortality” value in data set [2] came out at 95%.
